We go through one substance from PMC3490468.

Test [1] concerns the target truncated portal protein cn3 (E25-Q456) of bacteriophage CNPH82 (bacteriophage CNPH82). The test is described as follows: SEC-MALS; 60 ul of 0.5 mg/ml cn3 on a BioSep SEC-s3000 column; 20 mM Tris pH 7.5, 500 mM NaCl, 10 mM MgCl2; size of the oligomer in solution.
For test [2] the target is unchanged. Description: self-rotation function of X-ray diffraction data; crystal in space group C222(1), data to 4.2 A; MOLREP, resolution range 5-10 A, integration radius 87 A; structure not solved.

Several values for one entry are separate records, joined by “and”; a condition that tells them apart may be missing. Identical values can stand only once.

As to “truncated portal protein cn3 (E25-Q456) of bacteriophage CNPH82 (domain or fragment)”, the stoichiometry N (subunits per oligomer) in test [1] is 12.9 and 13; in test [2], 13.
